Assay results from PMC2288894.

What was measured:
[1] = target: the class I heavy chains (H-2Kb, Db, Kd, and Ld; Fig. 9); test: co-IP
[2] = target: H-2Db class I heavy chain (mouse (endogenous in EL4)); test: cross-linking
[3] = target: H-2Kb class I heavy chain (mouse (endogenous in EL4)); test: cross-linking
[4] = target: H-2Kd class I heavy chain (mouse (endogenous in MDAY-D2)); test: cross-linking
[5] = target: H-2Ld class I heavy chain (mouse (endogenous in MDAY-D2)); test: cross-linking
[6] = target: the other three class I molecules (Bio-Gel A0.5m); test: SEC

Chain of H-2Kb class I heavy chain (mouse (endogenous in EL4)) (P01901 22-369): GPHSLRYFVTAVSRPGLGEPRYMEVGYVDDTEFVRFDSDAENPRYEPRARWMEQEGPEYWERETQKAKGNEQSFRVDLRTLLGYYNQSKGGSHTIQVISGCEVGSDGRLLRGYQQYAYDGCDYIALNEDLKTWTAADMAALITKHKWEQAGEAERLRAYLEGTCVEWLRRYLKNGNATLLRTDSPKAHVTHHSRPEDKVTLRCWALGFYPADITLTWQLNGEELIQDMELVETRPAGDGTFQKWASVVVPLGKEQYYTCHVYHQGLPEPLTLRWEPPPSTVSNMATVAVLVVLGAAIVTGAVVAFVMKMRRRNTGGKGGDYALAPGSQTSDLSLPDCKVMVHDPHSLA
Chain of H-2Db class I heavy chain (mouse (endogenous in EL4)) (P01899 25-362): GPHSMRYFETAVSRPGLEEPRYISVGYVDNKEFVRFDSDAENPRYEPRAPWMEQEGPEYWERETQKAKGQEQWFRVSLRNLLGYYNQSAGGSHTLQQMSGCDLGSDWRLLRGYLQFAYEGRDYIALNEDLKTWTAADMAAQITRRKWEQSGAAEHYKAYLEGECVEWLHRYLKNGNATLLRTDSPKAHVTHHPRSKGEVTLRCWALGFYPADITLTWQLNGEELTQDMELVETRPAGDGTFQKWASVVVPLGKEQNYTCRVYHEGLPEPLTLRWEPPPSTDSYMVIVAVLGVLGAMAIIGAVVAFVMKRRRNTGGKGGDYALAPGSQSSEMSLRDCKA
Chain of H-2Kd class I heavy chain (mouse (endogenous in MDAY-D2)) (P01902 22-368): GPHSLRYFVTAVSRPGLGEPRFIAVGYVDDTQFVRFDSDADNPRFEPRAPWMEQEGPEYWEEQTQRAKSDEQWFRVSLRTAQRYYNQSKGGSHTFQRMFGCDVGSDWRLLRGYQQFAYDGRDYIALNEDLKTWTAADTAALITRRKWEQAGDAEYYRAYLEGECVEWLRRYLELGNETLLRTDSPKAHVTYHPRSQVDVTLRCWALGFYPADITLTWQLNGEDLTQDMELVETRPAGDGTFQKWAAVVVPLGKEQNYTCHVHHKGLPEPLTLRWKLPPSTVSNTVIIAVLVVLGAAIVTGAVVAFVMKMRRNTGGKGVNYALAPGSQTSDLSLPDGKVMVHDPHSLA
Chain of H-2Ld class I heavy chain (mouse (endogenous in MDAY-D2)) (P01897 25-362): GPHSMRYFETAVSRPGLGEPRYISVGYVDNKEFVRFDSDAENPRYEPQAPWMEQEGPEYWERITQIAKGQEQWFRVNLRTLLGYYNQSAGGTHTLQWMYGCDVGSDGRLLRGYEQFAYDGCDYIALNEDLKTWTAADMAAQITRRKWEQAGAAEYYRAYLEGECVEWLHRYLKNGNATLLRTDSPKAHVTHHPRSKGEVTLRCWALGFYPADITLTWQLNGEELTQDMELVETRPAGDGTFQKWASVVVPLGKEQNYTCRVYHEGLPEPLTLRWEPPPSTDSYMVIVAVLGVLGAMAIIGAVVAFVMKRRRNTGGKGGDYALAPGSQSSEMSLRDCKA

Row | Molecule | half-time of association post pulse (in cells) [1] | half-time of disappearance of the complex after the pulse (in cells) [2] | half-time of p88 dissociation in the presence of BFA (in cells) [2] | half-time of disappearance of the complex after the pulse (in cells) [3] | half-time of p88 dissociation in the presence of BFA (in cells) [3] | half-time of disappearance of the complex after the pulse (in cells) [4] | half-time of disappearance of the complex after the pulse (in cells) [5] | percent of heavy chains in the oligomeric species in the pulse-labeled sample [6]
1 | beta 2-microglobulin (from UniProt P01887 21-119) (natural protein) | 2 to 5 min | – | – | – | – | – | – | –
2 | p88 (novel 88-kD protein) (natural protein) HDGHDDDAIDIEDDLDDVIEEVEDSKSKSDASTPPSPKVTYKAPVPTGEVYFADSFDRGSLSGWILSKAKKDDTDDEIAKYDGKWEVDEMKETKLPGDKGLVLMSRAKHHAISAKLNKPFLFDTKPLIVQYEVNFQNGIECGGAYVKLLSKTAELSLDQFHDKTPYTIMFGPDKCGEDYKLHFIFRHKNPKTGVYEEKHAKRPDADLKTYFTDKKTHLYTLILNPDNSFEILVDQSVVNSGNLLNDMTPPVNPSREIEDPEDRKPEDWDERPKIADPDAVKPDDWDEDAPSKIPDEEATKPEGWLDDEPEYIPDPDAEKPEDWDEDMDGEWEAPQIANPKCESAPGCGVWQRPMIDNPNYKGKWKPPMIDNPNYQGIWKPRKIPNPDFFEDLEPFKMTPFSAIGLELWSMTSDIFFDNFIISGDRRVVDDWANDGWGLKKAADGAAEPGVVLQMLEAAEERPWLWVVYILTVALPVFLVILFCCSGKKQSNAMEYKKTDAPQPDVKDEEGKEEEKNKRDEEEEEEKLEEKQKSDAEEDGVTGSQDEEDSKPKAEEDEILNRSPRNRKPRRE | – | 45 min | 42 min | 20 min | 23 min | 38 min | 45 min | 20 to 60%
